No end group written: not given here.

One may read the Kd as the constant that tells how readily two partners part at equilibrium. Low values mean tighter binding, high ones weaker binding.

For this experiment, the target named is T1, S8-meSRK (S8-SRK ectodomain containing 11 mutations), purified, tags removed (Brassica rapa, three sugar chains (seen in the crystal structure)).
T1 chain: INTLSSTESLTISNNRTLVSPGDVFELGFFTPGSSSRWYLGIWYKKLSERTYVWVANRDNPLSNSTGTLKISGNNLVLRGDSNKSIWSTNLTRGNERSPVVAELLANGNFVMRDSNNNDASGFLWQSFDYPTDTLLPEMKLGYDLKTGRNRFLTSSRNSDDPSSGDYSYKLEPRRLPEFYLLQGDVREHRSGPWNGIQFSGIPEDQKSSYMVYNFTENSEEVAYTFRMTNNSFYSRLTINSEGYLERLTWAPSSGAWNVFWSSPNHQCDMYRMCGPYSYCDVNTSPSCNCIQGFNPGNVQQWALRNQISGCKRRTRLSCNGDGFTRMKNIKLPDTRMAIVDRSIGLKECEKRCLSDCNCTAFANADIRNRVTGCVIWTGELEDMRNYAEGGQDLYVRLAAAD
Put plainly: ITC. A general note: ITC needs no label: the signal is the heat of the interaction.

B1: biotin-S8-SP11, chemically synthesized (ligand)
chain: NLMKRCTRGFRKLGKCTTLEEEKCKTLYPRGQCTCSDSKMNTHSCDCKSC
modifications: not fully specified; cysteine pairing not given here; also: biotin-S8 (position not given here)
Take B1: the affinity, expressed as Kd, was 20.2 nM.

Source of the values: article PMC7530648 (2020).
